Laboratory results from patent US20250092156A1.

Target: FLAG-tagged WT RPTPα (WT-RPTPA, NM 008980.2, C-terminal FLAG) (mouse) (UniProt P18052)
Experiment: FLIM-FRET, anti-HA A488 donor with anti-FLAG A568 acceptor; unquenched donor around 2.4 ns

HA-tagged WT RPTPα (WT-RPTPA, NM 008980.2, C-terminal HA), sequence (P18052 20-829): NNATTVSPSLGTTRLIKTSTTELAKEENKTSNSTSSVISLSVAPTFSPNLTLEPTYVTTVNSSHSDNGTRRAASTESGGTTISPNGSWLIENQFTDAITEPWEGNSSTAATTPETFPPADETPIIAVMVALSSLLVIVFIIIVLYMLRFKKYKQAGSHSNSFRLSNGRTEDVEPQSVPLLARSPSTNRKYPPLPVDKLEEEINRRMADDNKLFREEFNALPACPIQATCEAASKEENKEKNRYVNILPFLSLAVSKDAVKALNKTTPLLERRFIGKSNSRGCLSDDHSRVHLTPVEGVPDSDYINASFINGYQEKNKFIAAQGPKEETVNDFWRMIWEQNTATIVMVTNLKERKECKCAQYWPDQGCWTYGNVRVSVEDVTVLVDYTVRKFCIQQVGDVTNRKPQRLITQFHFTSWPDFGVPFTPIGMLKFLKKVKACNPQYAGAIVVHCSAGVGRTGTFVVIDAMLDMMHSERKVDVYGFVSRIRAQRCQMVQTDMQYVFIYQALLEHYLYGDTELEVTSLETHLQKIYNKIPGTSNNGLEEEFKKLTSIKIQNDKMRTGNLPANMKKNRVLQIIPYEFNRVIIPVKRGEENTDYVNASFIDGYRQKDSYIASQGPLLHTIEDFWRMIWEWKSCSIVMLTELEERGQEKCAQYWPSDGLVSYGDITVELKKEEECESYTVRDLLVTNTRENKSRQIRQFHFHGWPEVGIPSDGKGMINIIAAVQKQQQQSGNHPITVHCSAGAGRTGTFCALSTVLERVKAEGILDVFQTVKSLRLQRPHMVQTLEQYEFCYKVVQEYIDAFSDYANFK
FLAG-tagged WT RPTPα (WT-RPTPA, NM 008980.2, C-terminal FLAG) (mouse), sequence (P18052 20-829 limits assumed): as the sequence (P18052 20-829) above

## HA-tagged WT RPTPα (WT-RPTPA, NM 008980.2, C-terminal HA) (from UniProt P18052 20-829) (receptor)
  donor fluorescence lifetime of quenched (H-FRET) population: 1.15 ns
